Reference: the supplement of paper PMC5998384

Assays:
HeLa Kyoto [1] = experiment: solubility change mitosis vs G1/S (difference of NP-40 vs SDS log2 ratios) (log2 ratio difference); higher = more soluble in mitosis
HeLa Kyoto [2] = experiment: melting temperature (median over replicates), in situ; higher = more thermally stable
HeLa Kyoto [3] = experiment: solubility in G1/S (NP-40 vs SDS abundance) (log2 ratio); higher = more soluble; conditions: cell cycle stage: G1/S
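For melting temperature (median over replicates), in situ in this document: HeLa Kyoto cells synchronized by double thymidine or nocodazole block, proteins quantified by TMT10plex mass spectrometry, three independent biological replicates.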
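For solubility change mitosis vs G1/S (difference of NP-40 vs SDS log2 ratios) in this document: synchronized HeLa Kyoto cells (double thymidine block for G1/S, nocodazole release for mitosis), protein amounts in NP-40 versus SDS lysates quantified by mass spectrometry, three biological replicates.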
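For solubility in G1/S (NP-40 vs SDS abundance) in this document: HeLa Kyoto cells arrested at G1/S by double thymidine block, proteins quantified by TMT10plex mass spectrometry in mild NP-40 versus SDS extracts, three biological replicates.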

Substance | solubility change mitosis (log2) (HeLa Kyoto [1]) | melting temperature (HeLa Kyoto [2]; cell cycle stage: G1/S) [°C] | melting temperature (HeLa Kyoto [2]; cell cycle stage: mitosis) [°C] | solubility in G1/S (log2) (HeLa Kyoto [3])
MAAHLSYGRVNLNVLREAVRRELREFLDKCAGSKAIVWDEYLTGPFGLIAQYSLLKEHEVEKMFTLKGNRLPAADVKNIIFFVRPRLELMDIIAENVLSEDRRGPTRDFHILFVPRRSLLCEQRLKDLGVLGSFIHREEYSLDLIPFDGDLLSMESEGAFKECYLEGDQTSLYHAAKGLMTLQALYGTIPQIFGKGECARQVANMMIRMKREFTGSQNSIFPVFDNLLLLDRNVDLLTPLATQLTYEGLIDEIYGIQNSYVKLPPEKFAPKKQGDGGKDLPTEAKKLQLNSAEELYAEIRDKNFNAVGSVLSKKAKIISAAFEERHNAKTVGEIKQFVSQLPHMQAARGSLANHTSIAELIKDVTTSEDFFDKLTVEQEFMSGIDTDKVNNYIEDCIAQKHSLIKVLRLVCLQSVCNSGLKQKVLDYYKREILQTYGYEHILTLHNLEKAGLLKPQTGGRNNYPTIRKTLRLWMDDVNEQNPTDISYVYSGYAPLSVRLAQLLSRPGWRSIEEVLRILPGPHFEERQPLPTGLQKKRQPGENRVTLIFFLGGVTFAEIAALRFLSQLEDGGTEYVIATTKLMNGTSWIEALMEKPF [VPS33A] | -0.165 | 49.4 | 49.9 | -0.0025
MMKFKPNQTRTYDREGFKKRAACLCFRSEQEDEVLLVSSSRYPDQWIVPGGGMEPEEEPGGAAVREVYEEAGVKGKLGRLLGIFENQDRKHRTYVYVLTVTEILEDWEDSVNIGRKREWFKVEDAIKVLQCHKPVHAEYLEKLKLGCSPANGNSTVPSLPDNNALFVTAAQTSGLPSSVR [NUDT4] | -0.0227 |  | 49.3 | 0.505
MAGAGGGGCPAGGNDFQWCFSQVKGAIDEDVAEADIISTVEFNYSGDLLATGDKGGRVVIFQREQENKSRPHSRGEYNVYSTFQSHEPEFDYLKSLEIEEKINKIRWLPQQNAAHFLLSTNDKTIKLWKISERDKRAEGYNLKDEDGRLRDPFRITALRVPILKPMDLMVEASPRRIFANAHTYHINSISVNSDHETYLSADDLRINLWHLEITDRSFNIVDIKPANMEELTEVITAAEFHPHQCNVFVYSSSKGTIRLCDMRSSALCDRHSKFFEEPEDPSSRSFFSEIISSISDVKFSHSGRYMMTRDYLSVKVWDLNMESRPVETHQVHEYLRSKLCSLYENDCIFDKFECCWNGSDSAIMTGSYNNFFRMFDRDTRRDVTLEASRESSKPRASLKPRKVCTGGKRRKDEISVDSLDFNKKILHTAWHPVDNVIAVAATNNLYIFQDKIN [PPP2R2D] | -0.168 | 53.1 |  | -0.162
MAARGRRAEPQGREAPGPAGGGGGGSRWAESGSGTSPESGDEEVSGAGSSPVSGGVNLFANDGSFLELFKRKMEEEQRQRQEEPPPGPQRPDQSAAAAGPGDPKRKGGPGSTLSFVGKRRGGNKLALKTGIVAKKQKTEDEVLTSKGDAWAKYMAEVKKYKAHQCGDDDKTRPLVK [C19ORF43] | 0.898 | 54.8 | 51.3 | 0.0485
MAVAIAAARVWRLNRGLSQAALLLLRQPGARGLARSHPPRQQQQFSSLDDKPQFPGASAEFIDKLEFIQPNVISGIPIYRVMDRQGQIINPSEDPHLPKEKVLKLYKSMTLLNTMDRILYESQRQGRISFYMTNYGEEGTHVGSAAALDNTDLVFGQYREAGVLMYRDYPLELFMAQCYGNISDLGKGRQMPVHYGCKERHFVTISSPLATQIPQAVGAAYAAKRANANRVVICYFGEGAASEGDAHAGFNFAATLECPIIFFCRNNGYAISTPTSEQYRGDGIAARGPGYGIMSIRVDGNDVFAVYNATKEARRRAVAENQPFLIEAMTYRIGHHSTSDDSSAYRSVDEVNYWDKQDHPISRLRHYLLSQGWWDEEQEKAWRKQSRRKVMEAFEQAERKPKPNPNLLFSDVYQEMPAQLRKQQESLARHLQTYGEHYPLDHFDK [BCKDHA] | -0.0598 | 52.2 | 52.2 | 0.0962
KIF13B | -0.193 | 50.2 | 50.3 | -0.0369
MAASKKAVLGPLVGAVDQGTSSTRFLVFNSRTAELLSHHQVEIKQEFPREGWVEQDPKEILHSVYECIEKTCEKLGQLNIGISNIKAIGVSNQRETTVVWDKITGEPLYNAVVWLDLRTQSTVESLSKRIPGNNNFVKSKTGLPLSTYFSAVKLRWLLDNVRKVQKAVEEKRALFGTIDSWLIWSLTGGVNGGVHCTDVTNASRTMLFNIHSLEWDKQLCEFFGIPMEILPHVRSSSEIYGLMKAGALEGVPISGCLGDQSAALVGQMCFQIGQAKNTYGTGCFLLCNTGHKCVFSDHGLLTTVAYKLGRDKPVYYALEGSVAIAGAVIRWLRDNLGIIKTSEEIEKLAKEVGTSYGCYFVPAFSGLYAPYWEPSARGIICGLTQFTNKCHIAFAALEAVCFQTREILDAMNRDCGIPLSHLQVDGGMTSNKILMQLQADILYIPVVKPLMPETTALGAAMAAGAAEGVDVWSLEPEDLSAVTMERFEPQINAEESEIRYSTWKKAVMKSMGWVTTQSPEGGDPSVFCSLPLGFFIVSSMAMLIGARYISGIP [GK3P] | -0.0298 |  |  | -0.0732
MGMKVPGKGESGPSALLTPPMSSSSRGPGAGARRRRTRCRRCRACVRTECGDCHFCRDMKKFGGPGRMKQSCLLRQCTAPVLPHTAVCLLCGEAGKEDTVEGEEEKFGLSLMECTICNEIVHPGCLKMGKAEGVINAEIPNCWECPRCTQEGRTSKDSGEGPGRRRADNGEEGASLGSGWKLTEEPPLPPPPPRRKGPLPAGPPPEDVPGPPKRKEREAGNEPPTPRKKVKGGRERHLKKVGGDACLLRGSDPGGPGLLPPRVLNPSQAFSSCHPGLPPENWEKPKPPLASAEGPAVPSPSPQREKLERFKRMCQLLERVPDTSSSSSDSDSDSDSSGTSLSEDEAPGEARNGRRPARGSSGEKENRGGRRAVRPGSGGPLLSWPLGPAPPPRPPQLERHVVRPPPRSPEPDTLPLAAGSDHPLPRAAWLRVFQHLGPRELCICMRVCRTWSRWCYDKRLWPRMDLSRRKSLTPPMLSGVVRRQPRALDLSWTGVSKKQLMWLLNRLQGLQELVLSGCSWLSVSALGSAPLPALRLLDLRWIEDVKDSQLRELLLPPPDTKPGQTESRGRLQGVAELRLAGLELTDASLRLLLRHAPQLSALDLSHCAHVGDPSVHLLTAPTSPLRETLVHLNLAGCHRLTDHCLPLFRRCPRLRRLDLRSCRQLSPEACARLAAAGPPGPFRCPEEKLLLKDS [FBXL19] | -0.126 |  |  | -0.317
MAASLWMGDLEPYMDENFISRAFATMGETVMSVKIIRNRLTGIPAGYCFVEFADLATAEKCLHKINGKPLPGATPAKRFKLNYATYGKQPDNSPEYSLFVGDLTPDVDDGMLYEFFVKVYPSCRGGKVVLDQTGVSKGYGFVKFTDELEQKRALTECQGAVGLGSKPVRLSVAIPKASRVKPVEYSQMYSYSYNQYYQQYQNYYAQWGYDQNTGSYSYSYPQYGYTQSTMQTYEEVGDDALEDPMPQLDVTEANKEFMEQSEELYDALMDCHWQPLDTVSSEIPAMM [TRNAU1AP] | -0.0623 |  |  | 0.0945
MMSEHDLADVVQIAVEDLSPDHPVVLENHVVTDEDEPALKRQRLEINCQDPSIKTICLRLDSIEAKLQALEATCKSLEEKLDLVTNKQHSPIQVPMVAGSPLGATQTCNKVRCVVPQTTVILNNDRQNAIVAKMEDPLSNRAPDSLENVISNAVPGRRQNTIVVKVPGQEDSHHEDGESGSEASDSVSSCGQAGSQSIGSNVTLITLNSEEDYPNGTWLGDENNPEMRVRCAIIPSDMLHISTNCRTAEKMALTLLDYLFHREVQAVSNLSGQGKHGKKQLDPLTIYGIRCHLFYKFGITESDWYRIKQSIDSKCRTAWRRKQRGQSLAVKSFSRRTPNSSSYCPSEPMMSTPPPASELPQPQPQPQALHYALANAQQVQIHQIGEDGQVQVGHLHIAQVPQGEQVQITQDSEGNLQIHHVGQDGQLLEATRIPCLLAPSVFKASSGQVLQGAQLIAVASSDPAAAGVDGSPLQGSDIQVQYVQLAPVSDHTAGAQTAEALQPTLQPEMQLEHGAIQIQ [BANP] | 0.0132 |  |  | 0.417
